Measurements: the supplement of paper PMC7877785
± gives the uncertainty stated by the source.

Assay: self-splicing fitness, log relative to wild type (ln ratio); higher = more splicing; Tetrahymena group I intron in knt gene, E. coli kanamycin selection, DiMSum; sequences stand for … in CUCUCU…GGAGGGAAAAGUUAUCAGGCAUGCACCUGGUAGCUAGUCUUUAAACCAAUAGAUUGCAUCGGUUUAAAAGGCAAGACCGUCAAAUUGCGGGAAAGGGGUCAACAGCCGUUCAGUACCAAGUCUCAGGGGAAACUUUGAGAUGGCCUUGCAAAGGGUAUGGUAAUAAGCUGACGGACAUGGUCCUAACCACGCAGCCAAGUCCUAAGUCAACAGAUCUUCUGUUGAUAUGGAUGCAGUUCACAGACUAAAUGUCGGUCGGGGAAGAUGUAUUCUUCUCAUAAGAUAUAGUCGGACCUCUCCUUAAUGGGAGCUAGCGGAUGAAGUGAUGCAACACUGGAGCCGCUGGGAACUAAUUUGUAUGCGAAAGUAUAUUGAUUAGUUUUGGAGUACUCGUGGUCG
Method in brief: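 Pooled colonies went to amplicon sequencing on an Illumina HiSeq 2500 after six replicate transformations. The plates were LB agar with 100 μg/mL carbenicillin, 50 μM IPTG and 0.2% rhamnose, with or without 25 μg/mL kanamycin, incubated overnight at 37°C or 30°C. The E. coli BL21(DE3) library had all eight P1ex-region intron nucleotides randomised, the intron placed in the knt kanamycin-resistance gene on pET-22b(+). DiMSum fitness is the error-weighted combination of replicate fold changes, kanamycin against none, normalised to wild type.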

Sequence | self-splicing fitness (ln) (30 °C) | self-splicing fitness (ln) (37 °C)
UAUCAGCAAUAUUACGCUUU | -1.48 ± 0.086 | -0.159 ± 0.098
CGUUAGCAAUAUUACGCAUG | -1.13 ± 0.12 | -0.626 ± 0.17
UAGGAGCAAUAUUACGCCAA | -3.23 ± 0.4 | -2.13 ± 0.42
UUGUAGCAAUAUUACGGGUG | -2.02 ± 0.11 | -0.808 ± 0.096
CCAGAGCAAUAUUACGGCUG | -1.9 ± 0.083 | -1 ± 0.12
GGGGAGCAAUAUUACGAAGU | -2.04 ± 0.34 | 
GGUUAGCAAUAUUACGAGCG | -0.684 ± 0.12 | -0.0379 ± 0.12
AAAUAGCAAUAUUACGAAAC | -3.4 ± 0.27 | -1.76 ± 0.18
GUGCAGCAAUAUUACGCAAA | -0.928 ± 0.1 | -0.119 ± 0.13
GACUAGCAAUAUUACGGUAG | -0.551 ± 0.12 | -0.15 ± 0.14
GAGAAGCAAUAUUACGGCAG | -3.08 ± 0.41 | -1.85 ± 0.3
AUUAAGCAAUAUUACGUAAA | -1.29 ± 0.12 | -1.15 ± 0.14
AUUUAGCAAUAUUACGUCAU | -1.76 ± 0.1 | -0.485 ± 0.1
GGGGAGCAAUAUUACGGGUG | -3.57 ± 0.23 | -2.9 ± 0.43
AAAAAGCAAUAUUACGAGAA | -2.33 ± 0.33 | -0.686 ± 0.27
AUAAAGCAAUAUUACGUUGC | -3.81 ± 0.19 | -3.29 ± 0.29
ACUGAGCAAUAUUACGACGU | -1.53 ± 0.11 | -1.66 ± 0.15
CAUUAGCAAUAUUACGUGCA | -2.31 ± 0.28 | 
UCGUAGCAAUAUUACGAAGG | -3.63 ± 0.47 | 
GUAGAGCAAUAUUACGGUGC | -1.15 ± 0.13 | -1 ± 0.19
AGUUAGCAAUAUUACGGCGC | -0.53 ± 0.22 | 0.14 ± 0.33
GCGCAGCAAUAUUACGUUCC | -0.792 ± 0.096 | -0.406 ± 0.13
AAACAGCAAUAUUACGGGCU | -3.15 ± 0.12 | -1.95 ± 0.13
CAGCAGCAAUAUUACGUUAU | -3.77 ± 0.19 | -2.93 ± 0.15
GCGCAGCAAUAUUACGUCUC | -0.0041 ± 0.098 | 0.525 ± 0.12
GGCGAGCAAUAUUACGACUU | 0.166 ± 0.15 | 0.444 ± 0.14

Sequence | self-splicing fitness (ln) (30 °C) | self-splicing fitness (ln) (37 °C)
GUUAAGCAAUAUUACGUCCA | -1.21 ± 0.088 | 0.057 ± 0.097
UGCUAGCAAUAUUACGAUUA | -0.493 ± 0.095 | -0.286 ± 0.096
CCAAAGCAAUAUUACGAUCA | -2.94 ± 0.13 | -3.1 ± 0.31
CUCCAGCAAUAUUACGUUAG | -2.15 ± 0.094 | -1.51 ± 0.12
GUCCAGCAAUAUUACGUGUU | -1.52 ± 0.055 | -0.617 ± 0.068
AAGUAGCAAUAUUACGAAAG | -2.94 ± 0.27 | -2.17 ± 0.25
AGCGAGCAAUAUUACGGCAU | -1.45 ± 0.12 | -0.286 ± 0.14
GUCAAGCAAUAUUACGCAAC | -4.34 ± 0.26 | -2.36 ± 0.34
GCGCAGCAAUAUUACGUUGC | -2.95 ± 0.14 | -2.51 ± 0.27
UACCAGCAAUAUUACGGCUC | -0.179 ± 0.074 | -0.0529 ± 0.096
UAGAAGCAAUAUUACGCAUA | -1.55 ± 0.17 | -1.36 ± 0.12
UCUGAGCAAUAUUACGUAGU | -2.3 ± 0.11 | -0.756 ± 0.13
CUGUAGCAAUAUUACGGGCA |  | -2.5 ± 0.49
GUCGAGCAAUAUUACGCGUU | -1.64 ± 0.11 | -0.556 ± 0.14
GCACAGCAAUAUUACGGAGC | -2.16 ± 0.15 | -2.1 ± 0.21
AGCUAGCAAUAUUACGGAUC | -1.26 ± 0.12 | -1.54 ± 0.16
CCCAAGCAAUAUUACGGGGC | -4.7 ± 0.39 | -3.08 ± 0.27
GAAUAGCAAUAUUACGGAAU | -2.69 ± 0.17 | -1.66 ± 0.2
CAGUAGCAAUAUUACGUAGG | -0.361 ± 0.047 | -0.0678 ± 0.066
GGUGAGCAAUAUUACGAAGG |  | -2.87 ± 0.4
GGCGAGCAAUAUUACGCAUG | -1.32 ± 0.22 | -0.82 ± 0.23
GUAGAGCAAUAUUACGAACA | -2.46 ± 0.17 | -0.783 ± 0.16
GGACAGCAAUAUUACGGAGC | -0.749 ± 0.089 | -0.621 ± 0.09
UGCUAGCAAUAUUACGGGAC | -2.52 ± 0.2 | -1.92 ± 0.18
UCACAGCAAUAUUACGGCUU | -3.43 ± 0.22 | -1.85 ± 0.17
GUGGAGCAAUAUUACGAGCU | -3.17 ± 0.26 | -2.01 ± 0.28

Sequence | self-splicing fitness (ln) (30 °C) | self-splicing fitness (ln) (37 °C)
CUCGAGCAAUAUUACGGCGU | -1.96 ± 0.12 | -1.61 ± 0.18
UGUGAGCAAUAUUACGCCGU |  | -1.71 ± 0.47
AAACAGCAAUAUUACGGCCA | -1.41 ± 0.11 | -0.0737 ± 0.12
AGUUAGCAAUAUUACGUGGA | -1.87 ± 0.13 | -1.58 ± 0.12
AUUGAGCAAUAUUACGAGGC | -3.05 ± 0.36 | -2.78 ± 0.4
GAAGAGCAAUAUUACGUCUA | -1.86 ± 0.13 | -1.01 ± 0.13
GUGCAGCAAUAUUACGCGGA | -2.35 ± 0.27 | -1.08 ± 0.12
CCUCAGCAAUAUUACGUACA | -3.73 ± 0.29 | -2.78 ± 0.34
GUGCAGCAAUAUUACGCACU | -3.41 ± 0.28 | -2.3 ± 0.37
CACAAGCAAUAUUACGGCGU | -1.66 ± 0.088 | -1.57 ± 0.099
UUUAAGCAAUAUUACGAUGU | -2.45 ± 0.14 | -1.96 ± 0.18
GGUUAGCAAUAUUACGCUGG | -3.44 ± 0.47 | -1.59 ± 0.31
CACGAGCAAUAUUACGGGAA | -2.95 ± 0.2 | -3.1 ± 0.29
AGGGAGCAAUAUUACGCGUC | -3.15 ± 0.29 | -2.51 ± 0.37
GGGUAGCAAUAUUACGAUAG | -2.32 ± 0.37 | 
AUUGAGCAAUAUUACGUAUU | -4.59 ± 0.38 | -1.25 ± 0.16
CCUCAGCAAUAUUACGCAGC | -3.42 ± 0.14 | -2.49 ± 0.17
ACACAGCAAUAUUACGUCAU | -2.34 ± 0.072 | -2.33 ± 0.094
CGGGAGCAAUAUUACGCUGU | -2.76 ± 0.33 | -2.43 ± 0.34
GCUCAGCAAUAUUACGCAUA | -1.48 ± 0.18 | 0.283 ± 0.17
CCGUAGCAAUAUUACGUGCC | -4.11 ± 0.47 | -2.33 ± 0.28
AAAAAGCAAUAUUACGUAGC | -3.26 ± 0.15 | -1.64 ± 0.12
GUAUAGCAAUAUUACGAGCA | -2.06 ± 0.2 | -1.12 ± 0.16
CAAAAGCAAUAUUACGAGGA | -3.08 ± 0.19 | -2.14 ± 0.15
GUCAAGCAAUAUUACGCGCG | -2 ± 0.13 | -1.32 ± 0.15
